According to patent publication US20180280551A1 (published 2018):

What was measured:
[1] = target: Class II MHC (mouse), on splenocytes and lymphoid organ cells (mouse); experiment: FACS, splenocytes stained in vitro with different concentrations of Alexa647-labeled DC8 monomer or dimer; reference DC8 monomer
[2] = target: Class II MHC (mouse), on splenocytes and lymphoid organ cells (mouse); experiment: FACS of spleen cells harvested 3 h after i.v. injection of Alexa647-labeled VHH into B6 mice; reference non-PEGylated DC8-Alexa647
[3] = target: Class II MHC (mouse), on splenocytes and lymphoid organ cells (mouse); experiment: FACS of spleen cells harvested 3 h after i.v. injection of Alexa647-labeled VHH into B6 mice; reference non-PEGylated DC8-Alexa647; no staining in the spleen of an MHC II-/- mouse
[4] = target: T1, CD11b (mouse), on the CD11b+ mutuDC dendritic cell line and on cells of lymphoid organs (mouse, UniProt P05555 17-1153); experiment: FACS, CD11b+ mutuDC dendritic cell line stained in vitro with Alexa647-labeled DC13 monomer or dimer; reference DC13 monomer
T1 construct: whole, on cells; Its partner chain on the cell surface is not mentioned
T1 sequence (P05555 17-1153): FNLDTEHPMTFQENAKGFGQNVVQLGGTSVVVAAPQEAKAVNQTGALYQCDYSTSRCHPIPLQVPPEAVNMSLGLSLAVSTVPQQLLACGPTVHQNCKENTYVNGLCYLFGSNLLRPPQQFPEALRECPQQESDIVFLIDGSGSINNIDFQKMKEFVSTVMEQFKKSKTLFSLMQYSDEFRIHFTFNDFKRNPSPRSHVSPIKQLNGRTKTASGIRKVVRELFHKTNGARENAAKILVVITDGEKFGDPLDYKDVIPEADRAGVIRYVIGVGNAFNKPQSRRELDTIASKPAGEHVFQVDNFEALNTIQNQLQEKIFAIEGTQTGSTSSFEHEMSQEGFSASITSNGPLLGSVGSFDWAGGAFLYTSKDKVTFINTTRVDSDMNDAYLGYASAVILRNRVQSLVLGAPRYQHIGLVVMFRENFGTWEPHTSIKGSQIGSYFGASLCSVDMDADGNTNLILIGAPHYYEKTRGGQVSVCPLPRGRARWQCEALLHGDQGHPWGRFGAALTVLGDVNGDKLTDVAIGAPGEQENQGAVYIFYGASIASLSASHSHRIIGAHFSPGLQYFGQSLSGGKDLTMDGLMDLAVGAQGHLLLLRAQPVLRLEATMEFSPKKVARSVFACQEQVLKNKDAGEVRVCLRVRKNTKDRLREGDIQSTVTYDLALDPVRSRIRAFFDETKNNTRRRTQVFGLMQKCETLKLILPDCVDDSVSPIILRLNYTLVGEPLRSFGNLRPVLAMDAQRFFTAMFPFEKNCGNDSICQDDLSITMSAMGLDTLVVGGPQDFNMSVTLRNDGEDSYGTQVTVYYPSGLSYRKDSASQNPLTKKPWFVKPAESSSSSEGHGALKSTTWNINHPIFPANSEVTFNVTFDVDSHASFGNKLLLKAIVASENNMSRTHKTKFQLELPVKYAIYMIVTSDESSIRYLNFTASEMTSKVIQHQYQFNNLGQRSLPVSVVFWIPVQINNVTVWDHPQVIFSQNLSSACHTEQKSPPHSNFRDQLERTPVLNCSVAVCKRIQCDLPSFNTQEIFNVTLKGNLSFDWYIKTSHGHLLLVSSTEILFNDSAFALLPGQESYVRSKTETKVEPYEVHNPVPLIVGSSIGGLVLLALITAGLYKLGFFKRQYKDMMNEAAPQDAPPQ
From the text: Cells were harvested and analyzed with FACS.
Four sortase substrates were designed and synthesized for production of dimers or PEGylated VHHs (FIG. 1). The substrates either contain two bioorthogonal handles or a handle and a flourophore. The Alexa647-labeled substrate was designed such that the reaction products could be used in FACS experiments to estimate relative in vitro binding affinities. […] The dimers were produced as exemplified in FIG. 2. For DC8 (anti Class II), splenocytes were stained with different concentrations of monomers and dimers and analyzed by FACS. For DC13 (anti CD11b), the CD11b⁺ mutuDC dendritic cell line was used. For Class II MHC and CD11b, VHH dimers bind approximately 3.3 and 2.3-fold better than their corresponding monomers respectively (FIG. 3). The in vivo binding characteristics of the VHH dimers versus monomers were evaluated. Due to the more abundant expression of Class II MHC molecules on splenocytes compared to that of CD11b, the in vivo binding affinity for anti-Class II dimers was explored. Mice were injected i.v. with equal amounts of monomers and dimers (0.25 nmol) of DC8. 2 h p.i., mice were euthanized and lymphoid organs were excised for examination. Monomers and dimers yielded different staining patterns (FIG. 3B), with the dimer showing interspersed yet more pronounced staining than the monomer, corroborating the FACS results. […]

Sequence of Class II MHC (mouse), on splenocytes and lymphoid organ cells (mouse) (P14434 24-256, chain 1 of 2): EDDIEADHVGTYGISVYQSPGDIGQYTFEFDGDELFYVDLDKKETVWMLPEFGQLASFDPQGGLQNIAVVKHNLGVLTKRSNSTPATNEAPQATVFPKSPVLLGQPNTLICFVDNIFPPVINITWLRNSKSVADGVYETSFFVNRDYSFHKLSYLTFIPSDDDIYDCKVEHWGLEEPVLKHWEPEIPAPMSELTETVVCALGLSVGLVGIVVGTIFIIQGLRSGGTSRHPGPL
Sequence of Class II MHC (mouse), on splenocytes and lymphoid organ cells (mouse) (P14483 28-265, chain 2 of 2, further chain): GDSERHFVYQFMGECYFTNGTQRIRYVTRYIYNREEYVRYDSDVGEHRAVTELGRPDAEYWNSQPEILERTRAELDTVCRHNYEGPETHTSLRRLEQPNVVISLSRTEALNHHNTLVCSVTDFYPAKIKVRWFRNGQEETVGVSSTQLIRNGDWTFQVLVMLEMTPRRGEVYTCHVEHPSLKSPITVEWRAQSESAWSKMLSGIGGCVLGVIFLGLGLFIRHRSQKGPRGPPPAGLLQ

B1: DC8-dimer (bivalent DC8, two DC8 VHHs joined through their C-termini) (VHH)
VHH: QVQLQESGGGLVQPGGSLRLSCTASGFTFSTYYMSWVRKAPGKGPEWVSVMNSSGGDTRYADFVKGRFTISRDNAKNTLYLQMNSLKPEDTALYYCAQGRSDIYPTFTRGQGTQVTVSS
modifications: Each chain is sortagged at LPET. One carries (Gly)3-Cys(maleimide-DBCO), the other (Gly)3-PEG12-Cys(X)-PEG5-Lys(azide), where X is Alexa647, Texas Red or TCO/18F-tetrazine. The two chains are joined C-terminus to C-terminus by DBCO-azide click chemistry.
Which fold better binding than the corresponding monomer [1] does the source give for B1 here?
The fold better binding than the corresponding monomer was 3.3 fold.

B2: DC8-Alexa647-PEG-5 kDa (PEGylated DC8, 5 kDa PEG) (VHH)
VHH: B1 VHH
modifications: Sortagged at LPET with (Gly)3-PEG12-Cys(X)-PEG5-Lys(azide), where X is Alexa647, Texas Red or TCO/18F-tetrazine. DBCO-PEG 5 kDa is clicked onto the azide.
How did the increase in staining versus non-PEGylated DC8 [2] turn out when B2 was run?
The increase in staining versus non-PEGylated DC8 was 30%.

B3: DC8-Alexa647-PEG-10 kDa (PEGylated DC8, 10 kDa PEG) (VHH)
VHH: B1 VHH
modifications: Sortagged at LPET with (Gly)3-PEG12-Cys(X)-PEG5-Lys(azide), where X is Alexa647, Texas Red or TCO/18F-tetrazine. DBCO-PEG 10 kDa is clicked onto the azide.
With B3 as the binder, how does the increase in staining versus non-PEGylated DC8 [2] read?
The increase in staining versus non-PEGylated DC8 was 100%.

B4: DC8-Alexa647-PEG-20 kDa (PEGylated DC8, 20 kDa PEG) (VHH)
VHH: B1 VHH
modifications: Sortagged at LPET with (Gly)3-PEG12-Cys(X)-PEG5-Lys(azide), where X is Alexa647, Texas Red or TCO/18F-tetrazine. DBCO-PEG 20 kDa is clicked onto the azide.
For B4, which increase in staining versus non-PEGylated DC8 [3] is on record?
The increase in staining versus non-PEGylated DC8 was 220%.

B5: DC13-dimer (bivalent DC13, two DC13 VHHs joined through their C-termini) (VHH)
VHH: QVQLQESGGGLVQTGGSLRLSCAASGVDFNWYSMGWFRQAPGKEREYVASIDQGGELDYAISVKGRFTISRDNAKNMVYLQMNSLKPEDTAVYYCAADFSGRGASNPDKYKYWGQGTQVTVSS
modifications: Each chain is sortagged at LPET. One carries (Gly)3-Cys(maleimide-DBCO), the other (Gly)3-PEG12-Cys(X)-PEG5-Lys(azide), where X is Alexa647, Texas Red or TCO/18F-tetrazine. The two chains are joined C-terminus to C-terminus by DBCO-azide click chemistry.
notes: This is a chemical C-to-C dimer; also called anti CD11b dimer; 18F-DC13 dimer
For B5, which “fold better binding than the corresponding monomer” value [4] is on record?
Its value is roughly 2.3 fold.
